The results in this text go back to article PMC11344281 (Protein Science : A Publication of the Protein Society, 2024).

The labels stand for the following.
B3: Use1 SNARE domain (aa 174–239) (domain or fragment)
chain: QRHQGLQEKLAEEMLGLARSLKTNTLAAQSVIKKDNQTLSHSLKMADQNLEKLKLESERLEQHAQK
B4: syntaxin 18 SNARE domain (aa 229–312) (domain or fragment)
chain: EEIQMFEQENQRLIGEMNSLFDEVRQIEGKVVEISRLQEIFTEKVLQQETEIDSIHQLVVGATENIKEGNEDIREAIKNNAGFR

Test [1] concerns the target B4. Description: native gel or EMSA. (In EMSA bound probe runs differently from free probe, usually more slowly.)
The target in test [2] is B4. Description: native gel or EMSA + SEC.
Test [3] concerns the target B3. Description: native gel or EMSA + SEC.
Test [4] addresses synaptobrevin 2 (aa 1–96) (Rattus norvegicus, UniProt P63045 1-96). Description: native gel or EMSA + SEC.

synaptobrevin 2 (aa 1–96), sequence (P63045 1-96): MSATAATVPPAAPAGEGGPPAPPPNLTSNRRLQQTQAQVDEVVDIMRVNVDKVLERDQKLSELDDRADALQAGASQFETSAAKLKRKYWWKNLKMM

B1: U_SNAP (Sec20, aa 133–198; Use1, aa 174–239), chimeric Qbc-SNARE with the SNAP-25 linker (other)
chain: QTSSSITESLMGISRMMSQQVQQSEEAMQTLVSSSRTLLDANEEFKSMSGTIQLGRKLITKYNRREGLSVSPSNKLKSSDAYKKAWGNNQDGVVASQPARVVDEREQMAISGGFIRRVTNDQRHQGLQEKLAEEMLGLARSLKTNTLAAQSVIKKDNQTLSHSLKMADQNLEKLKLESERLEQHAQK
On to B1, for which, in test [1], the binding result is on record as “binds”.

B2: Sec20 SNARE domain (aa 133–198) (domain or fragment)
chain: QTSSSITESLMGISRMMSQQVQQSEEAMQTLVSSSRTLLDANEEFKSMSGTIQLGRKLITKYNRRE
As for B2, the binding result in test [2] and in test [3] was “binds” in each case.

For B3, the binding result in test [2] was “binds”.

For the molecule B4, the binding result in test [4] is “binds”.
